Assay results taken from paper PMC4784741.

Legend:
[1] = target: recombinant human cathepsin L (human)
[2] = target: recombinant p31 Ii without cytoplasmic and transmembrane domain (and no inhibitory fragment) (human); assay: SDS-PAGE with Western blot; recombinant Ii isoforms separated by SDS-PAGE, blotted and labelled with anti-Ii (LN2) mAb; minor bands above the monomers
[3] = target: recombinant p41 Ii without cytoplasmic and transmembrane domain (with inhibitory p41 fragment included) (human); assay: as above

Sequence of recombinant p41 Ii without cytoplasmic and transmembrane domain (with inhibitory p41 fragment included) (domain or fragment) (P04233 73-296): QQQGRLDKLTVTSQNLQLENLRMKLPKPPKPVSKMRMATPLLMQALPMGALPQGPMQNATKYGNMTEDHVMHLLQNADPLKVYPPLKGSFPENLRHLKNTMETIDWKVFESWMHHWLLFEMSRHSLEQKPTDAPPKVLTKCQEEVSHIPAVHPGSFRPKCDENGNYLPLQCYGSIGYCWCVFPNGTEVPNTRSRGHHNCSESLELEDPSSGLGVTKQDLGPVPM

“p41 fragment of invariant chain p41 Ii (domain or fragment)” was tested, and the active site titration: degradation of Z-Phe-Arg-AMC by cathepsin L (2.5 nM) with p41 fragment 0.5 nM to 3 nM; molar ratio at which the activity is abolished (molar ratio p41 fragment/cathepsin L) [1] was 1.
For “recombinant p31 Ii without cytoplasmic and transmembrane domain (and no inhibitory fragment) (domain or fragment)”, the stoichiometry N [2] was 2.
Substance “recombinant p41 Ii without cytoplasmic and transmembrane domain (with inhibitory p41 fragment included) (domain or fragment)” has a stoichiometry N [3] of 2.
